Experimental data reported in the RNAGym collection of RNA variant scans (doi:10.7554/elife.80360).

B1: Hairpin Ribozyme (parent)
chain: GUCCUCUUUCACGUGCGCGUGAAAGAGAGAAGUGAACCAGAGAAACACACGUUGUGGUAUAUUACCUGGUA

Variants of: B1
Test: self-cleavage, relative activity (ratio to wild type); higher = more cleavage; co-transcriptional

Row | Variant | self-cleavage
1 | G13C A41U | 0.819
2 | G13C A41C | 0.892
3 | G13U G19U | 0.895
4 | U14C G21U | 0.702
5 | U14C G17A | 0.861
6 | U14C G17U | 1.24
7 | G13U U20G | 0.815
8 | G13C U53C | 0.535
9 | G13U A59G | 0.0932
10 | G13A G68C | 0.248
11 | G13A G68U | 0.218
12 | U14G U58C | 0.881
13 | U14C A31C | 0.0434
14 | U14C A31U | 0.0592
15 | U14G A24U | 0.653
16 | G13U U55G | 0.124
17 | G13A G42C | 0.302
18 | G13A G42U | 0.234
19 | G15A A49C | 0.0193
20 | G13U G25A | 0.559
21 | G13U G25U | 0.527
22 | G13U U52A | 0.83
23 | G13U G34U | 1.12
24 | G13U G34C | 0.998

Row | Variant | self-cleavage
25 | G13U G34A | 1.1
26 | U14G A71C | 1.11
27 | U14G A71G | 0.883
28 | G13U A49U | 0.169
29 | G13A G69C | 0.275
30 | G13U G17A | 0.69
31 | U14G A64U | 0.07
32 | G13C G57A | 0.215
33 | G13C G57C | 0.125
34 | U14G A41C | 0.698
35 | U14G A30C | 0.129
36 | G13A U70G | 0.629
37 | G13A U70A | 0.735
38 | G13A G29C | 0.153
39 | G13A G29A | 0.167
40 | U14C C16U | 0.728
41 | G15A A36U | 0.673
42 | G13C C46G | 0.164
43 | G13C G32A | 0.12
44 | G13C G32U | 0.027
45 | U14C G42C | 0.403
46 | U14C G42U | 0.365
47 | U14C G42A | 0.154
48 | G15A A39G | 0.287

Row | Variant | self-cleavage
49 | G15A A44G | 0.139
50 | U14C G27U | 0.102
51 | G15A A26G | 0.835
52 | G15A A26U | 0.638
53 | G13A U58C | 0.817
54 | U14A U63G | 0.0901
55 | G13U U58G | 0.645
56 | U14C A59G | 0.0434
57 | U14C A59U | 0.081
58 | G13U G56U | 0.135
59 | G13U G56A | 0.127
60 | G15A A43C | 0.162
61 | U14A U52G | 0.494
62 | U14A U52C | 0.788
63 | G13C G29C | 0.189
64 | G13C A31U | 0.0909
65 | G13C U52A | 0.658
66 | G13A U33A | 0.165
67 | G13A U33C | 0.139
68 | G13A U33G | 0.136
69 | U14C C18A | 0.933
70 | U14C C18U | 0.868
71 | G13U A45C | 0.141
72 | U14A G32C | 0.157

Row | Variant | self-cleavage
73 | G13U A22G | 0.659
74 | G13U G68A | 0.207
75 | U14C A49C | 0.162
76 | U14C A49U | 0.134
77 | U14G G69U | 0.2
78 | G13C C18G | 0.807
79 | G13C C18U | 0.817
80 | U14G A39G | 0.227
81 | G13U A61C | 0.173
82 | G13U A61G | 0.147
83 | U14G G19U | 0.893
84 | U14A C18G | 0.636
85 | U14A C18A | 0.888
86 | G13C G27A | 0.314
87 | U14G G34U | 1.11
88 | G13C A28G | 0.85
89 | G13C A28U | 0.252
90 | U14C U55C | 0.483
91 | U14C U55A | 0.271
92 | U14C U55G | 0.352
93 | G13U A23U | 0.709
94 | G13C U60C | 0.912
95 | U14A G34A | 1.31
96 | U14A G34C | 1.19

Row | Variant | self-cleavage
97 | U14C A71U | 0.87
98 | U14C G19C | 0.79
99 | U14C G19U | 0.88
100 | G15A C16G | 1.04
101 | G15A C16A | 0.881
102 | G13C G69U | 0.217
103 | G13C A71C | 1.22
104 | U14A A24G | 0.938
105 | G13C U33C | 0.296
106 | U14A A43G | 0.147
107 | U14C G15C | 0.932
108 | U14C G15A | 0.825
109 | U14C G15U | 0.926
110 | G15A A47G | 0.124
111 | G15A A47U | 0.17
112 | G15A A23U | 0.846
113 | G13U G42U | 0.289
114 | G13U G42A | 0.16
115 | G13C A26C | 0.403
116 | U14G C16A | 0.681
117 | G15A A41C | 1.08
118 | G13A G54A | 0.443
119 | U14A G69A | 0.219
120 | U14A G21A | 0.936

Row | Variant | self-cleavage
121 | U14A G21U | 0.795
122 | G13A G51U | 0.821
123 | G13A G51A | 0.87
124 | U14C C38A | 0.0751
125 | G13A G32U | 0.205
126 | G13A G34U | 1.22
127 | G13A G34A | 1.19
128 | G13A U53C | 0.645
129 | U14G G25A | 0.384
130 | U14G G27C | 0.0943
131 | G13C A24G | 0.537
132 | U14A C37A | 0.378
133 | G13A U62A | 0.163
134 | U14G A43C | 0.0921
135 | U14G U60G | 0.58
136 | U14G U60A | 0.641
137 | U14G C38U | 0.345
138 | U14G C38A | 0.17
139 | U14G U20G | 0.736
140 | U14G A31G | 0.693
141 | U14C U33A | 0.0608
142 | U14A A28U | 0.574
143 | U14C C65G | 0.214
144 | U14C C65A | 0.93

Row | Variant | self-cleavage
145 | G13A U20A | 0.716
146 | G13A U20G | 0.723
147 | G13U A24C | 0.563
148 | G13U A24U | 0.595
149 | G13U C16A | 0.558
150 | U14G A44G | 0.0802
151 | U14G A44C | 0.218
152 | G13C A49G | 0.424
153 | G13C A49C | 0.115
154 | G13C A49U | 0.199
155 | G13A G56A | 0.188
156 | U14A C65A | 0.958
157 | G13C U55G | 0.107
158 | G13C U55C | 0.0845
159 | G15A A30U | 0.109
160 | G15A A30C | 0.141
161 | G13C A61C | 0.155
162 | U14A A59U | 0.28
163 | U14G G68C | 0.0739
164 | G13C G68U | 0.193
165 | U14G C65A | 1.05
166 | U14A A44G | 0.189
167 | U14A A44C | 0.14
